The data set relates to MS2 coat protein. Put plainly: apparent KD of MS2 coat protein; designed switch direction (-1 OFF switch, 1 ON switch): -1; higher = weaker reporter binding. In short, it runs like this: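 Transcription of designed RNA switches on Illumina chips was done by stalled E. coli RNA polymerase. SNAP-549-labelled MS2 coat protein was then titrated in doubling steps from 0.7 or 1.5 nM to 3 µM, with steps of 0.8–1.5 h at the lowest and 10–20 min at the highest concentration. The per-design median over clusters of curve-fitted normalised fluorescence is reported as apparent KD.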

Setting [1] is: input ligand: microRNA oligo, concentration not stated.
[2] abbreviates: Eterna round: R95, input ligand: FMN 200 uM.
Setting [3] is: Eterna round: R95, input ligand: microRNA oligo, concentration not stated.
[4] abbreviates: Eterna round: R95, input ligand: none.

For “AUACAGGAUGUCAGGAUAUGUUGUAGGUUCCGACGACAGAAGGGACAUGAGGAUCACCCAUGUAGGCCUUUGCU [BmEX4 C.7] (Eterna round: R97, puzzle: Brourd's mod of Exclusion 4)”, the “apparent KD of MS2 coat protein” value runs as follows: (input ligand: FMN 200 uM) 0.0314 µM; (input ligand: none) 0.0151 µM.
As for “AUUUGCACGCUGCGGUCCUACAUGAGGAUCACCCAUGUGGUCUGGUGGCGUGGGUCGCCGGACUUGGCUCGUCUUGG [salish99_S_TOV1_R5_034] (Eterna round: R97, puzzle: Sensor, turn-off variant 1)”, the “apparent KD of MS2 coat protein” value was 0.0149 µM (input ligand: FMN 200 uM) and 0.0147 µM (input ligand: none).
Regarding “GCCCGGGCAGGAUAUACAAGCUAGUGCUGAAAAGUGCUAGUACAUGAGGAUCACCCAUGUAGAAGGGCCCGGGC [-37.6, -35.7 kcal, A 28% 2bis] (Eterna round: R97, puzzle: Exclusion 2)”, the “apparent KD of MS2 coat protein” value reads like this: (input ligand: FMN 200 uM) 0.0305 µM; (input ligand: none) 0.0181 µM.
The like results for “CUAUGCAAAGUAAGGAUAUGCUUCCGGAAACGGAGGCAGAAGGUACAUGAGGAUCACCCAUGUUAAACGCAUAG [Explosion 4 - Jieux - Brourd's mod of Exclusion 4] (Eterna round: R97, puzzle: Brourd's mod of Exclusion 4)” were, in that order, 0.0168 µM and 0.0128 µM.
Take “CGGGCCGGCCUUCCGGCCGGCCCGACAUGAGGAUCACCCAUGUAGGAUAUCCCGGCUGCCGGCCGGGAGAAGGGCGUGCGUCCU [-50.4, -49.5 kcal, 14% A] (Eterna round: R96, puzzle: Exclusion NG 3)”: the “apparent KD of MS2 coat protein” value runs as follows: (input ligand: FMN 200 uM) 0.101 µM; under setting [1], 0.0536 µM; (input ligand: none) 0.0916 µM.
As to “AAGAUGUGAGGAUAUCACGAGAGCGUCACACGGACGCCCUCUGAGAAGGCACAUGAGGAUCACCCAUGUCCAAA [EX4 A.22] (Eterna round: R97, puzzle: Exclusion 4)”, the “apparent KD of MS2 coat protein” value was 0.387 µM (input ligand: FMN 200 uM) and 0.065 µM (input ligand: none).
In the same order, the values of “AAUGACUGAGGAUAUUGUACUGCUGACAUGAGGAUCACCCAUGUAUGCUAACUCGGCCGUCGAGAAGGCAGUCAUG [BotMod 24 - Jieux - Exclusion 5] (Eterna round: R97, puzzle: Exclusion 5)” are 0.0185 µM and 0.028 µM.
In the same order, the values of “CUGUGCACGCUGCGGUCCUACAUGAGGAUCACCCAUGUGGUCUGGUGGCGUGGGUCGCCGGACUUGGCUCGUCUUGA [salish99_S_TOV1_R5_023] (Eterna round: R97, puzzle: Sensor, turn-off variant 1)” are 0.0191 µM and 0.0192 µM.
The like results for “AUAUUGUGAGGAUAUGAACUUAGUAUCGAAAGAUACUAAGUACAGAAGGCACAUGAGGAUCACCCAUGUUUCUC [Long static hairpin v2] (Eterna round: R97, puzzle: Exclusion 4)” were, in that order, 0.418 µM and 0.0857 µM.
As for “GUGGUGACAGGAUAUACAUGAGGAUCACCCAUGUGAGGAGGAGGAGAGAGGUGAAGGAGUAGAAGGGUCAGAGA [JR_Exclu3_Sub025] (puzzle: Exclusion 3)”, the “apparent KD of MS2 coat protein” value under setting [2] was found to be 0.102 µM, the “apparent KD of MS2 coat protein” value under setting [3] was found to be 0.0915 µM and the “apparent KD of MS2 coat protein” value under setting [4] came out at 0.106 µM.
For “AUAAGUAUGAAGGAUAUGCGCGAGCCAGCUUGGGCAGAAGGUUAAACAUGAGGAUCACCCAUGUGGAAAUCCGA [Eternabot (Original) Solution 34] (Eterna round: R97, puzzle: Exclusion 6)”, the “apparent KD of MS2 coat protein” value by setting is: (input ligand: FMN 200 uM) 0.0329 µM; (input ligand: none) 0.0217 µM.
As for “UUAAUGUGAGGAUAUCAAGAGAGAAAGAGUAAUGGUAAAUAUGAGAAGGCACAUGAGGAUCACCCAUGUUCUUC [Mat - Exclusion 4 - Mod of JL - D60] (puzzle: Exclusion 4)”, the “apparent KD of MS2 coat protein” value under setting [3] came out at 0.0142 µM.
As to “GGUCGGCGAGGAUAUACAUGAGGAUCACCCAUGUGAUAGAGUGCACGAAAACGUGUACGUAGAAGGCGCUGACG [Mat - Exclusion 3 - Mod of JL D96] (puzzle: Exclusion 3)”, the “apparent KD of MS2 coat protein” value was found to be 0.0295 µM under setting [2], 0.011 µM under setting [3] and 0.00924 µM under setting [4].
The like results for “CUUAGACAUGAGGAUCACCCAUGUGAGGAUAUGAUGCGAAUAAAGAAAGAAGAAAGCAUCAGAAGGCACAUAUG [Fiskers Ex 1 - 1] (puzzle: Exclusion 1)” were, in that order, 0.111 µM, 0.121 µM and 0.0979 µM.
“UAGGAGUCAGGAUAUGCGAGAGAUGGAAGUAAGGGAUGAGAGCAGAAGGGACAUGAGGAUCACCCAUGUAAGGA [JR_Exclu4_Sub091] (puzzle: Exclusion 4)”: the “apparent KD of MS2 coat protein” value under setting [3] turned out to be 0.0372 µM.
Take “UUUUAACAUGAGGAUCACCCAUGUCAGGAUAUGGUAUUUUUUUUUUUUUUUUUUUUUUCCAGAAGGGACAUUUU [My solution] (puzzle: Exclusion 1)”: the “apparent KD of MS2 coat protein” value reads like this: under setting [2], 0.0165 µM; under setting [3], 0.0113 µM; under setting [4], 0.0159 µM.
In the case of “GCUCUGCGAGGAUAUACAUGAGGAUCACCCAUGUGCGAGUUACUUGUGAGGUCGGUUGGUAGAAGGCGCGGAGG [Mat - Exclusion 3 - Mod of JL D100] (puzzle: Exclusion 3)”, the “apparent KD of MS2 coat protein” value under setting [3] came out at 0.0775 µM.
On to “UCAGUUUUGCGAGGAUAUCGACCAUUCCUCUUUACAUGAGGAUCACCCAUGUGCUUAUCCUACAACGAGAAGGCGCUCAUACUC [JR_ExcNG2_Sub065] (Eterna round: R96, puzzle: Exclusion NG 2)”, for which the “apparent KD of MS2 coat protein” value runs as follows: (input ligand: FMN 200 uM) 0.543 µM; under setting [1], 0.58 µM; (input ligand: none) 0.574 µM.
On to “CUGAUGUGAGGAUAUGUGAUCUGCCUUCUAUGUAGAUGAUCACAGAAGGCACAUGAGGAUCACCCAUGUAGAUC [Ex4 - 3 - 26] (puzzle: Exclusion 4)”, for which the “apparent KD of MS2 coat protein” value under setting [3] stood at 0.0697 µM.
For the sequence “AGAUGUAGAUACCGAUCCUACAUGAGGAUCACCCAUGUAGCUAGACGUGCUCGCGUGGCUCGUCAGACUACCAGUAG [salish99_TOv1_r3_091] (puzzle: Sensor v3, turn-off variant 1)”, the “apparent KD of MS2 coat protein” value under setting [2] came to 0.243 µM, the “apparent KD of MS2 coat protein” value under setting [3] came to 0.211 µM and the “apparent KD of MS2 coat protein” value under setting [4] was determined as 0.281 µM.
As for “AGUAACUAUCACGAAAGUGAUAGUUACAACAGGUGAUAAACAUGAGGAUCACCCAUGUCCUCAUUUGCUCGUCUUAU [Sensor 3 - 11] (puzzle: Sensor v3, turn-off variant 2)”, the “apparent KD of MS2 coat protein” value by setting is: under setting [2], 0.984 µM; under setting [3], 0.422 µM; under setting [4], 0.527 µM.
Regarding “CAACAGGGAGGAUAUACAUGAGGAUCACCCAUGUUCGAGCGUCCUUGAACUACCUCUGGUAGAAGGCCCACACG [Bibiorbi] (Eterna round: R97, puzzle: Exclusion 3)”, the “apparent KD of MS2 coat protein” value worked out at 0.147 µM (input ligand: FMN 200 uM) and 0.0569 µM (input ligand: none).
In the same order, the values of “GUGAGCAGACGGAGAUCCAACAUGAGGAUCACCCAUGUCUCACUAGCUUUUUGCUCGUCUUAUCCUCCUCUGUUCAC [Elimod 23 - Jieux - Sensor, turn-off variant 1] (Eterna round: R97, puzzle: Sensor, turn-off variant 1)” are 0.016 µM and 0.0162 µM.

The values are drawn from the supplement of paper PMC9170038.
